From PMC3628942

Molecular target: Bombyx mori lipoprotein 3 (Bombyx mori) (UniProt Q00802)
Assay: crystal structure; crystal form Bmlp3-c2, space group C2, two molecules in the asymmetric unit; grown in 2.0 M ammonium sulfate, 0.1 M ammonium iodide, pH 5.5, 20°C; an iodide anion lies in the centre of the dimer interface

Bombyx mori lipoprotein 3 (from UniProt Q00802 18-256) (natural protein)
stoichiometry N: 2
